In patent publication US20200079855A1 (Pfizer, published 2020):
Where a chain is given by its changes, count along the chain named. In names and notes the source's numbering stands. Several values for one entry are separate records, joined by “and”; a condition that tells them apart may be missing. Equal entries are not always repeated.

B1: ADWA11 2.2 Fab (Fab, V domains shown)
VH: EVQLVESGGGLVQPGGSLRLSCAASGFNIKDYYMNWVRQAPGKGLEWVGWIDPDQGNTIYEPKFQGRFTISADTSKNSAYLQMNSLRAEDTAVYYCARRLLMDYWGQGTLVTVSS
VL: DIQMTQSPSSLSASVGDRVTITCRSTKSLSHFNGNTYLFWYQQKPGKAPKRLIYYMSNLASGVPSRFSGSGSGTDFTLTISSLQPEDFATYYCMQSYEYPFTFGGGTKVEIK
B2: ADWA11 VH05-2/VK01 Fab (parental) (Fab, V domains shown)
VH: B1 VH
VL: B1 VL with S30L, Y97L, G105Q
B3: ADWA11 2.3 (F64V) Fab (Fab, V domains shown)
VH: B1 VH with F64V
VL: B1 VL with M56A, M94Q, Y97L
B4: ADWA11 2.1 Fab (Fab, V domains shown)
VH: B1 VH
VL: B1 VL with M94Q, Y97L
B5: ADWA11 2.4 (F64V) Fab (Fab, V domains shown)
VH: B1 VH with F64V
VL: B1 VL with N58S, M94Q, Y97L
B6: ADWA11 2.3 Fab (Fab, V domains shown)
VH: B1 VH
VL: B1 VL with M56A, M94Q, Y97L
B7: ADWA11 2.1 (F64V) Fab (Fab, V domains shown)
VH: B1 VH with F64V
VL: B1 VL with M94Q, Y97L
B8: ADWA11 VH02/VK01 IgG (antibody, V domains shown)
VH: B1 VH with G49A, Q55N, E61D, T74N, S75A, A79L
VL: B1 VL with S30L, Y97L, G105Q
B9: ADWA11 VH03/VK02 IgG (antibody, V domains shown)
VH: B1 VH with Q55N, E61D, T74N, S75A
VL: B1 VL with S30L, Y41F, Y97L, G105Q
B10: ADWA11 VH01/VK01 IgG (antibody, V domains shown)
VH: B1 VH with G49A, Q55N, E61D, A72R, T74N, S75A, A79L
VL: B1 VL with S30L, Y97L, G105Q
B11: ADWA11 VH03/VK01 IgG (antibody, V domains shown)
VH: B1 VH with Q55N, E61D, T74N, S75A
VL: B1 VL with S30L, Y97L, G105Q
B12: ADWA11 VH03/VK01 Fab (Fab, V domains shown)
VH: B1 VH with Q55N, E61D, T74N, S75A
VL: B1 VL with S30L, Y97L, G105Q
B13: ADWA11 VH01/VK01 Fab (Fab, V domains shown)
VH: B1 VH with G49A, Q55N, E61D, A72R, T74N, S75A, A79L
VL: B1 VL with S30L, Y97L, G105Q
B14: ADWA11 VH03/VK02 Fab (Fab, V domains shown)
VH: B1 VH with Q55N, E61D, T74N, S75A
VL: B1 VL with S30L, Y41F, Y97L, G105Q
B15: ADWA11 VH02/VK01 Fab (Fab, V domains shown)
VH: B1 VH with G49A, Q55N, E61D, T74N, S75A, A79L
VL: B1 VL with S30L, Y97L, G105Q
B16: ADWA11 VH05-2/VK01 Fab with M56A in VL (Fab, V domains shown)
VH: B1 VH
VL: B1 VL with S30L, M56A, Y97L, G105Q
B17: ADWA11 VH05-2/VK01 Fab with N58S in VL (Fab, V domains shown)
VH: B1 VH
VL: B1 VL with S30L, N58S, Y97L, G105Q
B18: ADWA11 VH05-2/VK01 Fab with Q105G in VL (Fab, V domains shown)
VH: B1 VH
VL: B1 VL with S30L, Y97L
B19: ADWA11 VH05-2/VK01 Fab with L97Y in VL (Fab, V domains shown)
VH: B1 VH
VL: B1 VL with S30L, G105Q
B20: ADWA11 VH05-2/VK01 Fab with F64V in VH (Fab, V domains shown)
VH: B1 VH with F64V
VL: B1 VL with S30L, Y97L, G105Q
B21: ADWA11 VH05-2/VK01 Fab with M94Q in VL (Fab, V domains shown)
VH: B1 VH
VL: B1 VL with S30L, M94Q, Y97L, G105Q
B22: ADWA11 VH05-2/VK01 Fab with F101L in VL (Fab, V domains shown)
VH: B1 VH
VL: B1 VL with S30L, Y97L, F101L, G105Q
B23: ADWA11 VH05-2/VK01 Fab with L30S in VL (Fab, V domains shown)
VH: B1 VH
VL: B1 VL with Y97L, G105Q
B24: ADWA11 VH05/VK01 Fab with N57Q in VH (Fab, V domains shown)
VH: B1 VH with Q55N, N57Q, E61D
VL: B1 VL with S30L, Y97L, G105Q
B25: ADWA11 VH05/VK01 Fab with K63A in VH (Fab, V domains shown)
VH: B1 VH with Q55N, E61D, K63A
VL: B1 VL with S30L, Y97L, G105Q
B26: ADWA11 VH05/VK01 Fab with N55Q in VH (Fab, V domains shown)
VH: B1 VH with E61D
VL: B1 VL with S30L, Y97L, G105Q
B27: ADWA11 VH05/VK01 Fab with D61E in VH (Fab, V domains shown)
VH: B1 VH with Q55N
VL: B1 VL with S30L, Y97L, G105Q
B28: ADWA11 VH05/VK01 Fab with P62A in VH (Fab, V domains shown)
VH: B1 VH with Q55N, E61D, P62A
VL: B1 VL with S30L, Y97L, G105Q
B29: ADWA11 VH05/VK01 Fab with K30A in VH (Fab, V domains shown)
VH: B1 VH with K30A, Q55N, E61D
VL: B1 VL with S30L, Y97L, G105Q

molecular target: T1, human αvβ8 integrin on U251 cells (human, UniProt P06756 31-1048); experiment: flow cytometry, Fab binding to fixed U251 cells (MFI APC-A); EC50 unit inferred, axis Log10 [Ab] (nM)

EC50	Binder
0.225 nM	B1
0.198 nM	B2
0.28 nM	B3
0.218 nM	B4
0.211 nM	B5
0.452 nM	B6
0.225 nM	B7

molecular target: T1, human αvβ8 integrin on U251 cells; experiment: cell-based or functional assay

IgG Potency TGFB Assay IC50 (pM)	Binder
1760 pM	B8
223 pM	B9
8470 pM	B10
138 pM	B11

molecular target: recombinant human αvβ8 integrin (human) (UniProt P06756); experiment: SPR (Biacore), Fab affinity of Table 3
Sequence (P06756 31-992 limits assumed, form in doubt, chain 1 of 2): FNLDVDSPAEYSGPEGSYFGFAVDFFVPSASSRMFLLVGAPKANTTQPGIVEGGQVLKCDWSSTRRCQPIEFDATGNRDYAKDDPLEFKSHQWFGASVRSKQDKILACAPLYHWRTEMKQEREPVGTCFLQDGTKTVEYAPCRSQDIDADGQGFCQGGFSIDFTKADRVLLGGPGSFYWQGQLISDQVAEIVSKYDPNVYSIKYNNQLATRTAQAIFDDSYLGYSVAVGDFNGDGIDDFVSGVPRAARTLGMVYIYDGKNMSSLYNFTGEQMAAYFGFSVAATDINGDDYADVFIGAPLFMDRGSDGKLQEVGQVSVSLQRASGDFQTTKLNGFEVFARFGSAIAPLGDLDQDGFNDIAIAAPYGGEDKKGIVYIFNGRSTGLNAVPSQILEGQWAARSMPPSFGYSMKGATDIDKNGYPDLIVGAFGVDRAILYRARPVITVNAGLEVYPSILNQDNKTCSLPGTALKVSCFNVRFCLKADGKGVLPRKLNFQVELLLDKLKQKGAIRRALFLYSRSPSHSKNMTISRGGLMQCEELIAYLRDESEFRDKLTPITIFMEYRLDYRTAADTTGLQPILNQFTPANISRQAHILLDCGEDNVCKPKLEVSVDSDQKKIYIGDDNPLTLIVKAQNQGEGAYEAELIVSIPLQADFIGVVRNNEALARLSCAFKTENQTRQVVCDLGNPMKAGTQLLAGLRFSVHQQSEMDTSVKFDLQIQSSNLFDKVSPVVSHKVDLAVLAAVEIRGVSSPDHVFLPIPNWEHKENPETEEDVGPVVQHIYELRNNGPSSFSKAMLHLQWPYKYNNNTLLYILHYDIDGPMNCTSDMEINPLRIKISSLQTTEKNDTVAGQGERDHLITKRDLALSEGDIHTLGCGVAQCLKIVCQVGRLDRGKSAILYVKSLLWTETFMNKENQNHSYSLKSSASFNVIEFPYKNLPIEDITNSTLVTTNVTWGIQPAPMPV
Sequence (chain, as listed by the source limits assumed, form in doubt, chain 2 of 2): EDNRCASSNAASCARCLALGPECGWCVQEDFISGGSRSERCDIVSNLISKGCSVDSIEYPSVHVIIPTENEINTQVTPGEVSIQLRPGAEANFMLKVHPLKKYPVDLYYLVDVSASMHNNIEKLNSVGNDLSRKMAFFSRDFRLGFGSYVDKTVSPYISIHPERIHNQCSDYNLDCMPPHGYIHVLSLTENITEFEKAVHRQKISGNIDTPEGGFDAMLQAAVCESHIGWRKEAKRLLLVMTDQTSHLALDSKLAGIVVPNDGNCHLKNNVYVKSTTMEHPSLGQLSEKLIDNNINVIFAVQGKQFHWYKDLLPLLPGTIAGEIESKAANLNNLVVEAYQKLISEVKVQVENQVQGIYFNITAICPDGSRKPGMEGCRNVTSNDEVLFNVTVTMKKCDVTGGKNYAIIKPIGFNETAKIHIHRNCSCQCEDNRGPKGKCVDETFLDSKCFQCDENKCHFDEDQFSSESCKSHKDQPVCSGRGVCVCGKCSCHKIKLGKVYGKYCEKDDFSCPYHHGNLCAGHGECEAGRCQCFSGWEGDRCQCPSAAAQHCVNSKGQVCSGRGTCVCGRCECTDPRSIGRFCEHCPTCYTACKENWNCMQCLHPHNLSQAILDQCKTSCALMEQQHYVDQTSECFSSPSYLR

Kd	fold lower KD than the mouse hybridoma antibody ADWA-11	Binder
0.0735 nM and < 0.1 nM	> 5 fold	B12
6.86 nM	–	B13
0.373 nM and 0.37 nM	–	B14
1.89 nM	–	B15

molecular target: T1, human αvβ8 integrin on U251 cells; experiment: flow cytometry, Fab binding to fixed U251 cells (ΔMFI, background subtracted); EC50 unit inferred, axis Log10 [Ab] (nM)

EC50	Binder
0.224 nM	B2
0.205 nM	B16
0.229 nM	B17

molecular target: T1, human αvβ8 integrin on U251 cells; experiment: flow cytometry, Fab binding to fixed U251 cells (ΔMFI, background subtracted); EC50 unit inferred, axis Log10 [FAB] nM

EC50	Binder
0.486 nM	B18
0.544 nM	B19
0.588 nM	B20
0.613 nM	B2
0.641 nM	B21
1.56 nM	B22
0.544 nM	B23

molecular target: recombinant human αvβ8 integrin (human) (UniProt P06756); experiment: ELISA (DELFIA counts) on human αvβ8, Fab titration

EC50 (read off the curve)	Binder
1 nM	B24
1 nM	B25
1 nM	B26
1 nM	B27
1 nM	B28
1 nM	B29
